Legend:
[1] = target: bovine aorta ATPDase type II (78 KDa catalytic unit) (bovine) (UniProt O18956); experiment: precipitation with lectin-agarose, elution with D-GlcNAc
[2] = target: bovine aorta ATPDase type II (78 KDa catalytic unit) (bovine) (UniProt O18956); experiment: precipitation of ADPase activity with lectin-agarose
[3] = target: bovine aorta ATPDase type II (78 KDa catalytic unit) (bovine) (UniProt O18956); experiment: precipitation with lectin-agarose, elution with Me-alpha-D-mannopyranoside

UniProt O18956, sequence (O18956 whole entry, form in doubt): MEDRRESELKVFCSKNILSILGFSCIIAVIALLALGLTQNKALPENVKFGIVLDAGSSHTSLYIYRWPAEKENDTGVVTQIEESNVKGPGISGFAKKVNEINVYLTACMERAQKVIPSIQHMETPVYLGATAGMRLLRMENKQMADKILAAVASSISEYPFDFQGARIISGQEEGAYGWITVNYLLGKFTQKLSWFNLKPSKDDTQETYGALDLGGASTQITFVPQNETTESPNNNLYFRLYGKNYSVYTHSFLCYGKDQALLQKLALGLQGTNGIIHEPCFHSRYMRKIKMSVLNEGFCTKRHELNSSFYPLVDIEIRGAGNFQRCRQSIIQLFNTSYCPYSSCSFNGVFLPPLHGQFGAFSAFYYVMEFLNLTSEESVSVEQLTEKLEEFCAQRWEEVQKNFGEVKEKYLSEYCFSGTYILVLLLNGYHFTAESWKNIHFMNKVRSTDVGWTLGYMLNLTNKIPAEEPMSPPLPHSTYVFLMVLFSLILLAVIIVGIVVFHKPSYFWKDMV

Row | Substance | Relative ADPase activity, Eluted fraction [1] [%] | Relative ADPase activity, Bound fraction [2] [%] | Relative ADPase activity, Supernatant (unbound) fraction [2] [%] | Relative ADPase activity, Eluted fraction [3] [%]
1 | WGA conjugated to agarose (from UniProt P10968 27-197) | 69 | 95 | 5 | 
2 | Con A conjugated to agarose (from UniProt P02866) |  | 95 | 5 | 62

— patent publication US20030040094A1
